Assay results: patent US20240150462A1 (UNIVERSITY HEALTH NETWORK, published 2024)

B1: 8D2 (antibody, V domains shown)
VH: QIQLVQSGPELKKPGETVKISCKASGYTFTTYGMSWVKQAPGKGLKWMGWINTYSGAPAYVDDFKGRFAFSLETSASTAYLQINNLKNEDTATYFCARHFYSGSSYWYFDVWGTGTTVTVSS
VL: DIQMTQSPASLSVSVGETVTITCRASENIYSNLAWYQQKQGKSPQLLVYAATNLADGVPSRFSGSGSGTQYSLKINSLQSEDFGSYYCQHFWGTPRTFGGGTKLEIKR
notes: Entries are printed with leader peptide and part of the mouse constant region; also called LILRB2 antibody 8D2
B2: 10D4 (antibody, V domains shown)
VH: QVQLQQSDAELVKPGASVKISCKVSGYTFSDHTFHWMKQRPEQGLEWIGYFYPRDGRSKYNEKFRDKATLTADKSSSTAYMQLNSLTSEDSAVYFCTCDGFDYWGQGTTLTVSS
VL: DIKMTQSPSSMHASLGERVTITCKASQDINSYLSWFQQKPGKSPKTLIYHADRLVDGVPSRFSGSGSGQDYSLTISSLEYEDMGIYYCLQYDEFPYTFGGGTKLEIKR
notes: Entries are printed with leader peptide and part of the mouse constant region; also called LILRB2 antibody 10D4
B3: 3B3 (antibody, V domains shown)
VH: QVQLQQPGAELVKPGASVKMSCKASDYTFTSYWITWVKKRPGQGLEWIGDIYPGSDTTNYNEKFKNKATLTVDTSSSTAHMQLSSLTSEDSAVYYCTRPLYQGISPWFAYWGQGTLVTVSA
VL: NIVMTQSPKSMSMSVGERVTLSCKASENVGTYVSWYQQKPEQSPKLLIYGASNRYTGVPDRFTGSGSATDFTLTISSVQAEDLADYHCGQSYSYPFTFGSGTKLEIKR
notes: Entries are printed with leader peptide and part of the mouse constant region; also called LILRB2 antibody 3B3
B4: 6B3 (antibody, V domains shown)
VH: EVQLQESGPELLKPGASMKISCKASGYTFTDDYMNWVKQSHGKSLEWIGDINPNNGGTSYNQKFKGKATLTVDKSSSTAYMELRSLTSEDSAVYYCARGSPWFAYWGQGTLVTVSA
VL: DIQMTQTTSSLSASLGDRVTINCRASQDIRNYLSWYQQKPDGTVKLLIYYTSRLHSGVPSRFSGSGSGRDYSLTISNLEQEDIATYFCQQSNTLPWTFGGGTKLEITR
notes: Entries are printed with leader peptide and part of the mouse constant region (heavy entry ends within CH1); also called LILRB2 antibody 6B3
B5: 10A8 (antibody, V domains shown)
VH: EVQLVESGGDFVKPGGSLKLSCAASGFTFSSYDMSWVRQTPDKRLEWVATIIRGDSYTYYLDSVKGRFTISRDNAKNTLYLQMSSLKSEDTAMYYCARPSYGNSFDYWGQGTTLTVSS
VL: DIVMTQSHKFMSTSIGDRVSITCKASQDVNNAVAWYQQKPGQSPKLLIYAASYRYTGVPDRFTGSGSGTDFTFTISSVQAEDLAVYHCQQHYGIPWTFGGGTKLEIKR
notes: Entries are printed with leader peptide and part of the mouse constant region; also called LILRB2 antibody 10A8

What follows are binders tested against T1, Recombinant human Fc-tagged extracellular domain of LILRB2 (human, UniProt Q8N423 22-460) (assay: SPR, Biacore X100; LILRB2-Fc amine-coupled to CM5 chip, antibody injected at 3.7-300 nM).
T1 construct: extracellular domain; Bought from R&D Systems; also called LILRB2-Fc; not shown: Fc tag
Experimental: Dissociation constants (Kd) for mouse anti-human LILRB1 and LIRB2 antibodies were determined using a Biacore X100 surface plasmon resonance instrument (Cytivia). Recombinant human Fc-tagged extracellular domains of LILRB1 or LILRB2 (LILRB1-Fc or LILRB2-Fc; R&D Systems) were immobilized on a Biacore CM5 biosensor chip by amine coupling at a density of 40-50 relative units (RU). Purified mouse monoclonal antibodies were injected over the biosensor in a concentration series of 3.7, 11, 33, 100, and 300 nM in HBS-EP buffer (10 mM HEPS pH 7.4, […], 3 mM EDTA, 0.005% v/v Surfactant P20) at a flow rate of 50 μL/min. Regeneration of the chip was achieved by a 30 s injection of 10 mM glycine-HCl, pH 1.7. Affinity parameters were determined by fitting response data using the accompanying Biacore X100 analysis software.

T1 sequence (Q8N423 22-460): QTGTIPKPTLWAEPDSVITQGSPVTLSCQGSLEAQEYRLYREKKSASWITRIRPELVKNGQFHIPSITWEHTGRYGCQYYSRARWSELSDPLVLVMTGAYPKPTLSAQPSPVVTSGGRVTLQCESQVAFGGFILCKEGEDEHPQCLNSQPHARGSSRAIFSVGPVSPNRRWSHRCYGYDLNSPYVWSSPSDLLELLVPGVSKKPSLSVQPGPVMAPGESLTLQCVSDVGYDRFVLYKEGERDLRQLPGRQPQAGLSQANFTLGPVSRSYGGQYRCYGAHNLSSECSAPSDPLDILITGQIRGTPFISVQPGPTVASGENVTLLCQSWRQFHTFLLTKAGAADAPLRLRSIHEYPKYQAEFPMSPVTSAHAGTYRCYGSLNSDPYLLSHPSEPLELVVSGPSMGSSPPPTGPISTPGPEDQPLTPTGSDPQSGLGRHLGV

-log(Kd) | Binder
8.43 | B1
7.82 | B2
8.01 | B3
9.02 | B4
8.77 | B5
